The chains are these.
B1: H chain humanized version i/L chain humanized version b antibody (antibody, V domains shown)
VH: QVQLLESGAVLARPGTSVKISCKASGFNIKDYYMHWVKQRPGQGLEWIGGNDPANGHSMYDPKFQGRVTITADTSTSTVFMELSSLRSEDTAVYYCARDSGYAMDYWGQGTLVTVSS
VL: DIQMTQSPSSLSASVGDRVTITCKASQDIKSFLSWYQQKPGKAPKLLIYYATSLADGVPSRFSGSGSGTDYTLTISSLQPEDFATYYCLQHGESPYTFGGGTKVEIK
notes: Expressed from vector N5KG4P (IgG4-type, human Cgamma4 and Ckappa); also called hHvi-hLvb/N5KG4P
B2: H chain humanized version i/L chain humanized version b2 antibody (antibody, V domains shown)
VH: B1 VH
VL: B1 VL with G41E, L46S
notes: Expressed from vector N5KG4P (IgG4-type, human Cgamma4 and Ckappa); also called i-b2; ib2
B3: H chain humanized version a/L chain chimeric antibody (antibody, V domains shown)
VH: QVQLLESGAVLARPGTSVKISCKASGFNIKDYYMHWVKQRPGQGLEWIGGNDPANGHSMYDPKFQGRAKLTAATSASIAYLEFSSLTNEDSAVYYCARDSGYAMDYWGQGTLVTVSS
VL: DIKMTQSPSSMYASLGERVTITCKASQDIKSFLSWYQQKPWKSPKTLIYYATSLADGVPSRFSGSGSGQDYSLTINNLESDDTATYYCLQHGESPYTFGGGTKLEIK
notes: Expressed from vector N5KG4P (IgG4-type, human Cgamma4 and Ckappa); also called a-ch; hHva-chLv/N5KG4P
B4: H chain humanized version c/L chain chimeric antibody (antibody, V domains shown)
VH: QVQLLESGAVLARPGTSVKISCKASGFNIKDYYMHWVKQRPGQGLEWIGGNDPANGHSMYDPKFQGRVTMLVDTSKNQFSLRLSSVTAADTAVYYCARDSGYAMDYWGQGTLVTVSS
VL: B3 VL
notes: Expressed from vector N5KG4P (IgG4-type, human Cgamma4 and Ckappa); also called c-ch; hHvc-chLv/N5KG4P
B5: H chain chimeric/L chain humanized version b antibody (antibody, V domains shown)
VH: EVQLQQSGTNLVRPGALVKLSCKGSGFNIKDYYMHWVKQRPEQGLEWIGGNDPANGHSMYDPKFQGKASITADTSSNTAYLQLSSLTSEDTAVYFCARDSGYAMDYWGQGTSVTVSS
VL: B1 VL
notes: Expressed from vector N5KG4P (IgG4-type, human Cgamma4 and Ckappa); also called ch-b; chHv-hLvb/N5KG4P
B6: H chain humanized version b/L chain chimeric antibody (antibody, V domains shown)
VH: B1 VH with S77N, V79A, F80Y, V93I
VL: B3 VL
notes: Expressed from vector N5KG4P (IgG4-type, human Cgamma4 and Ckappa); also called b-ch; hHvb-chLv/N5KG4P
B7: H chain humanized version a/L chain humanized version a antibody (antibody, V domains shown)
VH: B3 VH
VL: B1 VL with Y71F
notes: Expressed from vector N5KG4P (IgG4-type, human Cgamma4 and Ckappa); also called hHva-hLva/N5KG4P
B8: H chain humanized version g/L chain humanized version b antibody (antibody, V domains shown)
VH: B1 VH with R67K, V68A, I70L, T74E, T76S, V79A, F80Y, E82Q, T91S, Y95S
VL: B1 VL
notes: Expressed from vector N5KG4P (IgG4-type, human Cgamma4 and Ckappa); also called g-b; hHvg-hLvb/N5KG4P
B9: H chain humanized version d/L chain chimeric antibody (antibody, V domains shown)
VH: B1 VH with T74E, V79A, F80Y, T91S, Y95F
VL: B3 VL
notes: Expressed from vector N5KG4P (IgG4-type, human Cgamma4 and Ckappa); also called d-ch; hHvd-chLv/N5KG4P
B10: H chain humanized version b/L chain humanized version a antibody (antibody, V domains shown)
VH: B1 VH with S77N, V79A, F80Y, V93I
VL: B1 VL with Y71F
notes: Expressed from vector N5KG4P (IgG4-type, human Cgamma4 and Ckappa); also called b-a; hHvb-hLva/N5KG4P
B11: H chain humanized version i/L chain humanized version b1 antibody (antibody, V domains shown)
VH: B1 VH
VL: B1 VL with Y36F, A43S, L46T
notes: Expressed from vector N5KG4P (IgG4-type, human Cgamma4 and Ckappa); also called i-b1; hHvi-hLvb1/N5KG4P
B12: H chain humanized version e/L chain chimeric antibody (antibody, V domains shown)
VH: B1 VH with T69S, T74E, S77K, T78I, V79A, F80Y, S84N, Y95F
VL: B3 VL
notes: Expressed from vector N5KG4P (IgG4-type, human Cgamma4 and Ckappa); also called e-ch; hHve-chLv/N5KG4P
B13: H chain humanized version i/L chain chimeric antibody (antibody, V domains shown)
VH: B1 VH
VL: B3 VL
notes: Expressed from vector N5KG4P (IgG4-type, human Cgamma4 and Ckappa); also called i-ch; hHvi-chLv/N5KG4P
B14: H chain humanized version b/L chain humanized version b2 antibody (antibody, V domains shown)
VH: B1 VH with S77N, V79A, F80Y, V93I
VL: B1 VL with G41E, L46S
notes: Expressed from vector N5KG4P (IgG4-type, human Cgamma4 and Ckappa); also called b-b2; hHvb-hLvb2/N5KG4P
B15: H chain chimeric/L chain humanized version a antibody (antibody, V domains shown)
VH: B5 VH
VL: B1 VL with Y71F
notes: Expressed from vector N5KG4P (IgG4-type, human Cgamma4 and Ckappa); also called chHv-hLva/N5KG4P
B16: H chain chimeric/L chain humanized version c antibody (antibody, V domains shown)
VH: B5 VH
VL: B1 VL with F83I
notes: Expressed from vector N5KG4P (IgG4-type, human Cgamma4 and Ckappa); also called ch-c; chHv-hLvc/N5KG4P
B17: H chain humanized version b3/L chain humanized version b antibody (antibody, V domains shown)
VH: B1 VH with K38R, R40A, S77N, V79A, F80Y, V93I
VL: B1 VL
notes: Expressed from vector N5KG4P (IgG4-type, human Cgamma4 and Ckappa); also called b3-b; hHvb3-hLvb/N5KG4P
B18: H chain humanized version b/L chain humanized version c antibody (antibody, V domains shown)
VH: B1 VH with S77N, V79A, F80Y, V93I
VL: B1 VL with F83I
notes: Humanized antibodies were expressed from vector N5KG4P (IgG4-type); the construction of the b-c plasmid itself is not described; also called b-c
B19: H chain humanized version d3/L chain humanized version b antibody (antibody, V domains shown)
VH: B1 VH with K38R, R40A, T74E, V79A, F80Y, T91S, Y95F
VL: B1 VL
notes: Expressed from vector N5KG4P (IgG4-type, human Cgamma4 and Ckappa); also called d3-b; hHvd3-hLvb/N5KG4P

Numbering of substitutions follows the chain as printed.

One assay deals with T1, soluble human TF (human TF amino acids 1-219 with the FLAG peptide at the C-terminal) (human, UniProt P13726 33-251).
T1 construct: Expressed in CHO cells and purified; The entry is the whole soluble TF construct (TF 1-219 plus FLAG peptide M2); The entry may include the signal peptide; also called shTF; soluble TF
T1 sequence (P13726 other isoform, or with tags, fused parts or gaps limits assumed): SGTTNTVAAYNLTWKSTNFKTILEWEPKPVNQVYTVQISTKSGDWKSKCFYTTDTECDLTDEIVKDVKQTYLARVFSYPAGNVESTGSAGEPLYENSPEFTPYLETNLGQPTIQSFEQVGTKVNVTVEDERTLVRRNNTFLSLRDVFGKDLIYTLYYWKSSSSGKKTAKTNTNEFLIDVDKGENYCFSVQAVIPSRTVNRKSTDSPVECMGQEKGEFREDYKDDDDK
Nature of the assay: BIACORE; antibody captured on Protein G chip, soluble TF as analyte; mean ± SD, n = 3.
By Kd is commonly meant the concentration at which binding is half-saturated. Lower therefore signals a tighter complex. By koff is commonly meant the rate constant with which the complex falls apart. Low readings indicate a long-lived complex, high ones a short-lived complex. By kon is commonly meant a measure of how fast the partners come together. A high value points to fast association. For B1, the Kd is 1.39 nM, the dissociation rate constant (koff) was 0.000649 s⁻¹ and the association rate constant (kon) worked out at 467000 M⁻¹ s⁻¹.
For B2 the same measures were 1.17 nM, 0.000635 s⁻¹ and 544000 M⁻¹ s⁻¹.

In the next assay the target is recombinant Protein G (UniProt P19909). As to the kind of experiment: BIACORE; 10 µl of 72 nM antibody injected over Protein G immobilized on CM5 chip. A general note: SPR reads the build-up and loss of mass on a sensor chip optically.
B2: the RU bound is 1000 RU.

For a further assay, the target named is T2, human tissue factor (TF) on human bladder carcinoma cells J82 (human, UniProt P13726 33-295).
T2 construct: whole, on cells; J82 is described as a TF-high expression cell line; also called the antigen; J82 (ATCC HTB-1)
T2 sequence (P13726 33-295): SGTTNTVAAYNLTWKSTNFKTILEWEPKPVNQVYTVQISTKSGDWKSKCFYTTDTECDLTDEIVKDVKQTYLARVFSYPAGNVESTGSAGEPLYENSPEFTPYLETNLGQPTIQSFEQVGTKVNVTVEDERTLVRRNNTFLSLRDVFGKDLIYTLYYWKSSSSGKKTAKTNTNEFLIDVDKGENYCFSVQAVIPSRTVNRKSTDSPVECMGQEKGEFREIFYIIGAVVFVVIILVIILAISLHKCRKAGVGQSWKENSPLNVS
Nature of the assay: cell ELISA on fixed J82 cells. In general terms: An ELISA detects its analyte on a solid surface through an enzyme-linked reagent.
As for B3, the binding result is reported as “binds”.
Still for that read-out and setting: in the case of B4 it was “binds”; in that of B5, “binds”; in that of B6, “binds”.
For the molecule B7, the binding result is listed as “binds”.
Regarding B8, the binding result is listed as “binds”.
Still for that read-out and setting: in the case of B9 it was “binds”; in that of B10, “binds”.
Same read-out and setting: the same measure for B11: “binds”; for B12: “binds”.
In the case of B13, the binding result was “binds”.
The same measure, in the same setting: the same measure for B14: “binds”.
Still for that read-out and setting: the same measure for B15: “binds”; for B16: “binds”.
Turning to B17, the binding result was “binds”.
Still for that read-out and setting: in the case of B18 it was “binds”.
On the same count and under the same terms, the same measure for B19: “binds”.
